Measured values published in paper PMC3992121 (Proteins, 2013).

Biological target: the molecule itself
Test: SEC

Protein	stoichiometry N
BaiA2, 3α-Hydroxysteroid Dehydrogenase from Clostridium scindens VPI 12708 (enzyme, UniProt P19337 1-249, looked up, selenomethionine (protein expressed in a selenomethionine-containing medium for structure determination)) MNLVQDKVTIITGGTRGIGFAAAKIFIDNGAKVSIFGETQEEVDTALAQLKELYPEEEVLGFAPDLTSRDAVMAAVGQVAQKYGRLDVMINNAGITSNNVFSRVSEEEFKHIMDINVTGVFNGAWCAYQCMKDAKKGVIINTASVTGIFGSLSGVGYPASKASVIGLTHGLGREIIRKNIRVVGVAPGVVNTDMTNGNPPEIMEGYLKALPMKRMLEPEEIANVYLFLASDLASGITATTVSVDGAYRP	4
BaiA1, 3α-Hydroxysteroid Dehydrogenase from Clostridium scindens VPI 12708 (enzyme, UniProt P07914 1-249, looked up) MKLVQDKITIITGGTRGIGFAAAKLFIENGAKVSIFGETQEEVDTALAQLKELYPEEEVLGFAPDLTSRDAVMAAVGTVAQKYGRLDVMINNAGITMNSVFSRVSEEDFKNIMDINVNGVFNGAWSAYQCMKDAKQGVIINTASVTGIYGSLSGIGYPTSKAGVIGLTHGLGREIIRKNIRVVGVAPGVVDTDMTKGLPPEILEDYLKTLPMKRMLKPEEIANVYLFLASDLASGITATTISVDGAYRP	4
